What was measured:
Assay in all cases: cell_activity
[1] = tested on: ponzr1 right TALEN +231 (pTAL) (synthetic construct (Xanthomonas TALE-FokI)); conditions: pair with P3; zebrafish larvae
[2] = tested on: crhr1 right TALEN +231 (synthetic construct (Xanthomonas TALE-FokI)); conditions: pair with P7
[3] = tested on: crhr1 right TALEN +63 (synthetic construct (Xanthomonas TALE-FokI)); conditions: pair with P5, 15 bp spacer; 15-fold over +231
[4] = tested on: ponzr1 left TALEN +231 (pTAL) (synthetic construct (Xanthomonas TALE-FokI)); conditions: pair with P4; zebrafish larvae
[5] = tested on: crhr1 left TALEN +231 (synthetic construct (Xanthomonas TALE-FokI)); conditions: pair with P8
[6] = tested on: crhr1 left TALEN +63 (synthetic construct (Xanthomonas TALE-FokI)); conditions: pair with P6, 15 bp spacer; 15-fold over +231

**Q.** How did the activity (% modification (median)) [1] turn out when “ATCAGAACAACAGTCAGAGAT (double strand) [ponzr1 right half-site]” was run?
**A.** 5

**Q.** For “CTGCTGCCGACTGGACCCTGAGGT (double strand) [crhr1 right half-site]”, which activity (% modification (median)) [2] is on record?
**A.** < 1

**Q.** What about the activity (% modification (median)) [3] of the same sequence?
**A.** 7

**Q.** For “GTGAGCACCCAGCGGACCTCCTCT (double strand) [ponzr1 left half-site]”, which activity (% modification (median)) [4] is on record?
**A.** 5

**Q.** How did the activity (% modification (median)) [5] turn out when “TGCAACACTGAGCTCTGTAAACCT (double strand) [crhr1 left half-site]” was run?
**A.** < 1

**Q.** What about the activity (% modification (median)) [6] of the same sequence?
**A.** 7

From patent publication US20150291951
